Test results as given in PMC6882843.

Target: ToxT from Vibrio cholerae serogroup O42 strain SCE-256, wild type, purified (Vibrio cholerae serogroup O42 strain SCE-256) (UniProt Q7BGC0)
Assay: SEC-SAXS

Q: How did the stoichiometry N turn out when “ToxT from Vibrio cholerae serogroup O42 strain SCE-256, wild type, purified (from UniProt Q7BGC0 1-276) (natural protein)” was run?
A: 2
